Measured values published in patent US20190256612A1 (NEW YORK UNIVERSITY, published 2019).

Assays:
[1] = molecular target: T1, glutaraldehyde polymerized Aβ1-42 (oligomeric Aβ1-42) (UniProt P05067 672-713); experiment: SPR, polymerized Aβ1-42 immobilised, antibody injected
T1 construct: domain: Aβ1-42

Aβ40p = molecular target: T2, Aβ40p (Covalently polymerized with glutaraldehyde into stable oligomers. The cross-links between copies cannot be carried by the letters, so only the monomer unit is given.); experiment: immunoblot after SDS-PAGE, antigen on nitrocellulose, anti-mouse IgM detection
T2 construct: also called Aβ1-40 polymerized; Aβ1-40 polymerized with glutaraldehyde

Aβ1-40 = molecular target: T3, Aβ1-40; experiment: as above
T3 construct: also called Aβ1-40 as loaded on the gel (not polymerized)

B1: anti-β-sheet conformational monoclonal antibody (aβComAb) GW-23B7 (antibody)
heavy: EVQLQQSVAELVRPGASVKLSCTASGFNIKNTYMHWVKQRPEQGLEWIGRIDPANGNTKYAPKFQGKATITADTSSNTAYLQLSSLTSEDTAIYYCARGSFYAMDYWGQGTSVTVSSESQSFPNVFPLVSCESPLSDKNLVAMGCLARDFLPSTISFTWNYQNNTEVIQGIRTFPTLRTGGKYLATSQVLLSPKSILEGSDEYLVCKIHYGGKNRDLHVPIPAVAEMNPNVNVFVPPRDGFSGPAPRKSKLICEATNFTPKPITVSWLKDGKLVESGFTTDPVTIENKGSTPQTYKVISTLTISEIDWLNLNVYTCRVDHRGLTFLKNVSSTCAASPSTDILTFTIPPSFADIFLSKSANLTCLVSNLATYETLNISWASQSGEPLETKIKIMESHPNGTFSAKGVASVCVEDWNNRKEFVCTVTHRDLPSPQKKFISKPNEVHKHPPAVYLLPPAREQLNLRESATVTCLVKGFSPADISVQWLQRGQLLPQEKYVTSAPMPEPGAPGFYFTHSILTVTEEEWNSGETYTCVVGHEALPHLVTERTVDKSTGKPTLYNVSLIMSDTGGTCY
light: DVQITQSPSYLAASPGETITINCRASKSINKYLAWYQEKPGKTNKLLIYSGSTLQSGIPSRFSGSGSGTDFTLTISSLEPEDFAMYHCQQHNEYPWTFGGGTKLEIKRADAAPTVSIFPPSSEQLTSGGASVVCFLNNFYPRDINVKWKIDGSERQNGVLNSWTDQDSKDSTYSMSSTLTLTKDEYERHNSYTCEATHKTSTSPIVKSFNRNEC
- Kd [1]: 14 nM
- binding result (Aβ40p): binds
- binding result (Aβ1-40): binds
